Dwell time data for one substance are collected here from paper PMC10404701.

In the experiment the target is TTLL7-treated microtubules (mouse brain tubulin) (mouse (endogenous in brain)) (UniProt P68369). As to the kind of experiment: TIRF microscopy, single-molecule imaging (kymographs, dwell time); MTs immobilised on a cover glass by a tubulin antibody; Kif5c-GFP in imaging buffer (BRB80, 1 mM ATP, 20 μM taxol); 35 °C; dwell times from kymographs, events shorter than 0.2 s left out, single exponential fit.
Sequence of UniProt P68369 (P68369 whole entry, chain 1 of 2): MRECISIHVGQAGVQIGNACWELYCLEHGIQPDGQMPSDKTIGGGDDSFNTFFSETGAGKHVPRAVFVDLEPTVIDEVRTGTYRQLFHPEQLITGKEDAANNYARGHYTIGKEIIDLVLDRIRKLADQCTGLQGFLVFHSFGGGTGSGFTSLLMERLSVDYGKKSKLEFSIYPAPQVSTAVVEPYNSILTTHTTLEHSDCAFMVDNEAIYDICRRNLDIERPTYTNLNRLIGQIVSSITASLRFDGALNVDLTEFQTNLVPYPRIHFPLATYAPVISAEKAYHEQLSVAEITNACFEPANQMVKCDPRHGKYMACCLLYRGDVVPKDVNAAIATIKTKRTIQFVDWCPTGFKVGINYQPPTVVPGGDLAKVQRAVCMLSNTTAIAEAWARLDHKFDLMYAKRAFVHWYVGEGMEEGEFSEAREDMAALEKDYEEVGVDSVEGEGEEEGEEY
Sequence of UniProt P68369 (Q7TMM9 whole entry, chain 2 of 2, further chain): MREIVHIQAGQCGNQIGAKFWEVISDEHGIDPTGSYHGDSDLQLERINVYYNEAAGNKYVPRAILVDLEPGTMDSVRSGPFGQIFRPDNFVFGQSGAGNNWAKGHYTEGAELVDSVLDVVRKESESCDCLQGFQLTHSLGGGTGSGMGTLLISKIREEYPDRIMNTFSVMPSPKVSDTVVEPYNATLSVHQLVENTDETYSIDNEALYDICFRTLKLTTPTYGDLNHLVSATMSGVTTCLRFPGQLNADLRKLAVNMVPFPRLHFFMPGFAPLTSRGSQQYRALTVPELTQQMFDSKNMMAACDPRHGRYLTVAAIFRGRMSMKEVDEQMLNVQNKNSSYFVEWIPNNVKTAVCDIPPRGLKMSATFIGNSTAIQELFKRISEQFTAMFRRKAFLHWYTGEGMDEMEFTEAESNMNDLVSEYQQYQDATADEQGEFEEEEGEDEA

The substance “Kif5c-GFP (amino acids: 1–430) (from UniProt P56536 1-430) (domain or fragment)” registered a dwell time of 0.5 s.
